Broadly, the Kd is the equilibrium constant for the complex coming apart. The low end stands for higher affinity, the high end for lower affinity.

Where a chain is given by its changes, count along the chain named.

Results on 31 molecules are retold here after patent publication US20260216326A1 (PROMETHEUS BIOSCIENCES, published 2026).

The labels stand for the following.
T1: human TL1A (Fitzgerald #30R-AT070) (human, UniProt O95150 72-251, limits assumed)
T1 construct: Coated on the ELISA plate at 1 ug/mL; also called TNFSF15
T1 sequence (looked up): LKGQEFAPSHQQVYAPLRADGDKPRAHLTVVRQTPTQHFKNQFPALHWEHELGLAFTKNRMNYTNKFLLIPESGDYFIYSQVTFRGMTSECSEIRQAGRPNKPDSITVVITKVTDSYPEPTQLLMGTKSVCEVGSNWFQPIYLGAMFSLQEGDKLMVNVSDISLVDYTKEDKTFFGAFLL

B1: A148 (antibody, human IgG1, V domains shown)
VH: QVQLVQSGAEVKKPGASVKVSCKASGFDIQDTYMHWVRQAPGQGLEWMGRIEPASGHIKYDPKFQVRVTMTRDTSTSTVYMELSSLRSEDTAVYYCARSGGLPDWWGQGTTVTVSS
VL: EIVLTQSPGTLSLSPGERATLSCRASSSVSYMYWYQQKPGQAPRPLIYATSNLASGIPDRFSGSGSGTDFTLTISRLEPEDFAVYYCQQWEGNPRTFGGGTKLEIK
notes: human IgG1/kappa (pFuse vectors), culture supernatant
B2: A90 (antibody, human IgG1, V domains shown)
VH: B1 VH with V66G
VL: B1 VL with L11M, P45L
notes: as for B1
B3: A57 (antibody, human IgG1, V domains shown)
VH: B1 VH with A40R, V66G
VL: B1 VL with P45L
notes: as for B1
B4: A33 (antibody, V domains shown)
VH: B1 VH with Q1D, V66G
VL: B1 VL with P45L
B5: A61 (antibody, human IgG1, V domains shown)
VH: B1 VH with M48I, V66G
VL: B1 VL with P45L
notes: as for B1
B6: A71 (antibody, human IgG1, V domains shown)
VH: B1 VH with V66G, M70I, R72T
VL: B1 VL with P45L
notes: as for B1
B7: A63 (antibody, human IgG1, V domains shown)
VH: B1 VH with I58V, V66G
VL: B1 VL with P45L
notes: as for B1
B8: A66 (antibody, human IgG1, V domains shown)
VH: B1 VH with V66G, M70I
VL: B1 VL with P45L
notes: as for B1
B9: A64 (antibody, human IgG1, V domains shown)
VH: B1 VH
VL: B1 VL with P45L
notes: as for B1
B10: A58 (antibody, human IgG1, V domains shown)
VH: B1 VH with R38K, V66G
VL: B1 VL with P45L
notes: as for B1
B11: A87 (antibody, human IgG1, V domains shown)
VH: B1 VH with V66G
VL: B1 VL with P45L, L77V
notes: as for B1
B12: A86 (antibody, human IgG1, V domains shown)
VH: B1 VH with V66G
VL: B1 VL with P45L, F70Y
notes: as for B1
B13: A88 (antibody, human IgG1, V domains shown)
VH: B1 VH with V66G
VL: B1 VL with P45L, F70Y, L77V
notes: as for B1
B14: A85 (antibody, human IgG1, V domains shown)
VH: B1 VH with V66G
VL: B1 VL with P45L, I57V
notes: as for B1
B15: A65 (antibody, human IgG1, V domains shown)
VH: B1 VH with V66G, V68A
VL: B1 VL with P45L
notes: as for B1
B16: A31 (antibody, human IgG1, V domains shown)
VH: B1 VH with V66G
VL: B1 VL with L46W
notes: as for B1
B17: A60 (antibody, human IgG1, V domains shown)
VH: B1 VH with E52D, V66G
VL: B1 VL with P45L
notes: as for B1
B18: A29 (antibody, human IgG1, V domains shown)
VH: QVQLVQSGAEVKKPGASVKVSCKASGFDIQDTYMHWVKQRPGQGLEWIGRIDPASGHTKYDPKFQVRATITTDTSTSTAYLELSSLRSEDTAVYYCARSGGLPDVWGQGTTVTVSS
VL: B1 VL with L46W
notes: as for B1
B19: A59 (antibody, human IgG1, V domains shown)
VH: B1 VH with R38K, A40R, V66G
VL: B1 VL with P45L
notes: as for B1
B20: A73 (antibody, human IgG1, V domains shown)
VH: B1 VH with V66G, R72T
VL: B1 VL with L46W
notes: as for B1
B21: A72 (antibody, human IgG1, V domains shown)
VH: B1 VH with V66G, V68A, M70I, R72T
VL: B1 VL with P45L
notes: as for B1
B22: A68 (antibody, human IgG1, V domains shown)
VH: B1 VH with M70I
VL: B1 VL with P45L
notes: as for B1
B23: A75 (antibody, human IgG1, V domains shown)
VH: B1 VH with V66G, V68A, M70I, R72T
VL: B1 VL with L46W
notes: as for B1
B24: A70 (antibody, human IgG1, V domains shown)
VH: B1 VH with V66G, R72T
VL: B1 VL with P45L
notes: as for B1
B25: A69 (antibody, human IgG1, V domains shown)
VH: B1 VH with Q1E, V66G
VL: B1 VL with P45L
notes: as for B1
B26: A74 (antibody, human IgG1, V domains shown)
VH: B1 VH with V66G, M70I, R72T
VL: B1 VL with L46W
notes: as for B1
B27: A62 (antibody, human IgG1, V domains shown)
VH: B1 VH with M48I, E52D, V66G
VL: B1 VL with P45L
notes: as for B1
B28: A91 (antibody, human IgG1, V domains shown)
VH: B1 VH with V66G, V79A
VL: B1 VL with P45L
notes: as for B1
B29: A89 (antibody, human IgG1, V domains shown)
VH: B1 VH with V66G
VL: B1 VL with L13A, P45L
notes: as for B1
B30: A67 (antibody, human IgG1, V domains shown)
VH: B1 VH with V68A
VL: B1 VL with P45L
notes: as for B1
B31: A32 (antibody, V domains shown)
VH: B1 VH with Q1D, V66G
VL: B1 VL with L46W

The target in this assay is T1, human TL1A (Fitzgerald #30R-AT070). The experiment in a line: ELISA titration, coated human TL1A, culture supernatant.
B1 yielded a Kd of 46 pM.
The value for B2 was 107 pM; that for B3 was 191 pM; that for B4 was 81 pM.
Next, B5: 127 pM.
As to B6, binding was put at a Kd of 150 pM.
For B7, the Kd was 132 pM.
For the molecule B8, the Kd worked out at 150 pM.
Take B9: the Kd stood at 90 pM.
The value for B10 was 112 pM; that for B11 was 121 pM; that for B12 was 129 pM.
Next, B13: 81 pM; B14: 130 pM; B15: 97 pM.
The value for B16 was 92 pM; that for B17 was 168 pM; that for B18 was 65 pM.
B19 registered an equilibrium dissociation constant (Kd) of 136 pM.
Next, B20: 128 pM.
The molecule B21 came in with a Kd of 159 pM.
Next, B22: 74 pM; B23: 259 pM.
The value for B24 was 149 pM; that for B25 was 136 pM; that for B26 was 141 pM.
In turn, B27 displayed an equilibrium dissociation constant (Kd) of 150 pM.
Next, B28: 132 pM; B29: 117 pM.
Take B30: the Kd amounted to 89 pM.
B31 showed a Kd of 111 pM.
